2 molecules from PMC5552909, “The first description of a hormone‐sensitive lipase from a basidiomycete: Structural insights and biochemical characterization revealed Bjerkandera adusta BaEstB as a novel esterase” (MicrobiologyOpen, 2017) can be followed below.

The target of series [1] is Bjerkandera adusta BaEstB, Hormone-Sensitive Lipase (HSL) family esterase (Bjerkandera adusta). Kind of series: dynamic light scattering (DLS); purified BaEstB in presence of the substrate 2-naphthyl acetate; same conditions, considering its optimum pH and temperature; 12 scans of 10 s.
For series [2] the target is unchanged. The experiment in a line: dynamic light scattering (DLS); purified BaEstB without substrate; 30°C; Malvern Zetasizer Nano ZSP; 12 scans of 10 s; hydrodynamic radius from the Stokes-Einstein equation assuming spherical geometry.
Substrate in series [3]: CC(=O)Oc1ccc2ccccc2c1
The experiment in a line: isothermal titration calorimetry, single injection, Michaelis-Menten fit. The following applies: 30°C in methods, results state optimum pH and temperature (pH 7.0; 45°C). It is filed as biochemical, Bjerkandera adusta.

On to “Bjerkandera adusta BaEstB, Hormone-Sensitive Lipase (HSL) family esterase (enzyme)”, for which the stoichiometry N in series [1] and in series [2] was 2 throughout.

B1: BaEstB (Bjerkandera adusta) (protein)
chain: MESIRLSNAAGTISNDILAQVTFANEAIYPLLEKRRAEIENVTRKTFRYGALPGSEMDVYYPSSTPSGKAPVLAFVHGGAYVHGSKTHPPPGDLIYKNVGAFYASQGFVTVIPDYRKLPGMKWPDAPSDIASALTFLVAHSSDVNASAPTAADVQNIFLVGHSAGGAIASDVLLAPGLLPANVRRSVRGLIVFGGMMHYRGLEYPIPPFVLPGYYGTDEDVRAHEPLGLLESASDEIVRGLPDVLMVLSEHDVAAMRAAVTDFRSALAERTGKDVPLLVAQGHNHISPHYALSSGEGEEWGHDVIRWMRAKLASGNGVPATE
notes: full-length ORF (969 nt, M1-E322) in pPICZalphaA with myc and poly-His tags; secreted from Pichia pastoris X-33; dimer by DLS; catalytic triad S163, D252, H285
As for B1, in series [3], the Km (usually the concentration of substrate that gives half-maximal velocity) worked out at 7.68 ± 0.62 µM and the kcat is listed as 5.31 × 10^3 ± 20 s^−1.
